# Assay: in vivo
# Design: species or system NMRI nude mice
# Conditions: female, NMRI nude, mouse, iv, total radioactivity
# Experimental: For PET/CT imaging, one mouse was injected with ^64Cu-DOTA-AE105 and scanned 1 h post injection. Gamma planar imaging was performed on another mouse 1 h post injection of ^177Lu-DOTA-AE105. Quantitative data were based on manual drawings of region-of-interest analyses on PET/CT data and from analyzed whole tumor tissue using a gamma-counter for planar data. A. Representative images after PET/CT (left) and Gamma planar (right) imaging of HT-29 tumor xenograft. White arrows indicate tumor xenograft. B. […] Quantitative tumor uptake data is presented as % ID/g±SEM based on three animals. Ten min static PET scans were acquired with a microPET Focus 120 scanner (Siemens Medical Solutions, Malvern, PA) 1 hr post i.v. injection of approximately 10 MBq of either ^64Cu-DOTA-AE105 or ^18F-FLT during sevoflurane anesthesia. All PET/CT settings were used as described in detail previously. All results were analyzed using Inveon software (Siemens Medical Solutions) and PET data was expressed as percent of injected dose per gram tissue (% ID/g), with CT-data expressed as cubic millimeters (mm^3). […] This is illustrated in FIG. 2A (left), where a colorectal HT-29 tumor bearing mouse was PET/CT scanned using ^64Cu-DOTA-AE105. […] In FIG. 2A (right) is a representative planar image of a HT-29 tumor bearing mice after injection of ^177Lu-DOTA-AE105.
smiles,measurement,value
"CC(C)C[C@H](NC(=O)[C@H](Cc1ccc(O)cc1)NC(=O)[C@@H](CCCNC(=N)N)NC(=O)[C@@H](CO)NC(=O)[C@H](Cc1ccccc1)NC(=O)[C@H](CC1CCCCC1)NC(=O)[C@H](CC(=O)O)NC(=O)CN1CCN(CC(=O)O)CCN(CC(=O)O)CCN(CC(=O)O)CC1)C(=O)N[C@@H](Cc1c[nH]c2ccccc12)C(=O)N[C@@H](CO)C(N)=O [^64Cu-DOTA-AE105, metal not drawn]",tissue uptake at 1 h,0.86 ± 0.03 %ID/g

# — patent publication US12589171B2, “177-Lu labeled peptide for site-specific uPAR-targeting” (priority 2012, dated 2026)
